{"source": "patent US20030124108A1", "target": "purified PLD1 (isoform not distinguished in Example 4) (human)", "assay": "cell-based or functional assay", "data": [{"substance": "human ADP-ribosylation factor 1 (ARF1) (from UniProt P84077 2-181)", "values": [{"measurement": "activation of PLD1 at a maximally effective concentration (ARF1 4.7 M as printed)", "result": 49, "unit": "fold"}, {"measurement": "half-maximal activation of PLD1 activity (headgroup release assay)", "result": 0.2, "unit": "M"}, {"measurement": "stimulation of PLD1 activity", "result": 50, "unit": "fold"}]}, {"substance": "human RhoA with … at the amino terminus (from UniProt P61586 1-190)", "values": [{"measurement": "activation of PLD1 at a maximally effective concentration (RhoA 3.8 M as printed)", "result": 13, "unit": "fold"}, {"measurement": "half-maximal activation of PLD1 activity (headgroup release assay)", "result": 1, "unit": "M"}, {"measurement": "stimulation of PLD1 activity", "result": 10, "unit": "fold"}]}, {"substance": "human cdc42 with … at the amino terminus (from UniProt P60953 1-188)", "values": [{"measurement": "activation of PLD1 at a maximally effective concentration (cdc42 5.5 M as printed)", "result": 10, "unit": "fold"}, {"measurement": "half-maximal activation of PLD1 activity (headgroup release assay)", "result": 1, "unit": "M"}, {"measurement": "stimulation of PLD1 activity", "result": 5, "unit": "fold"}]}, {"substance": "human protein kinase C- (isoform letter lost in print) (from UniProt P17252 2-672) (enzyme)", "values": [{"measurement": "activation of PLD1 at a maximally effective concentration (PMA-activated PKC- 0.043 M as printed)", "result": 28, "unit": "fold"}]}]}
